Data on 24 molecules can be found in patent US20260274985A1 (MYTHIC THERAPEUTICS, published 2026).

Residue numbers refer to the chain shown, from its start.

Sequences and labels used below:
B1: MYT12393 (antibody, V domains shown)
VH: QVQLVQSGAEVKKPGASVKVSCKASGYTFTTAGMQWVRQAPGQGLEWMGWINTHSGVPKYAEDFKGRVTISADTSTSTAYLQLSSLKSEDTAVYYCARSGFGSSYWYFDVWGQGTLVTVSS
VL: DIQMTQSPSSLSASVGDRVTITCKASQDVSTAVAWYQQKPGKAPKLLIYSHSYRYTGVPSRFSGSGSGTDFTLTISSLQPEDFAVYYCHQHYITPLTFGQGTKLEIK
notes: datopotamab VL 51, 89 substituted
B2: MYT12392 (antibody, V domains shown)
VH: B1 VH
VL: B1 VL with S52H, H89Q
notes: datopotamab VL 51, 52 substituted
B3: MYT12398 (antibody, V domains shown)
VH: B1 VH
VL: B1 VL with D28H, S52H, H89Q
notes: datopotamab VL 28, 51, 52 substituted
B4: MYT12404 (antibody, V domains shown)
VH: B1 VH
VL: B1 VL with S52H
notes: datopotamab VL 51, 52, 89 substituted
B5: MYT12431 (hu7E6SVG variant, HCV substitutions at 33, 51, 106) (antibody, V domains shown)
VH: QVQLQESGPGLVKPSETLSLTCTVSGGSISSYHVHWIRQPPGKGLEWIGVHWTSGVTDYNSALMGRVTISVDTSKNQFSLKLSSVTAADTAVYYCARDGDYDRYTHDYWGQGTLVTVSS
VL: DIVMTQSPDSLAVSLGERATINCRASKSVSTSGYSYMHWYQQKPGQPPKLLIYLASNLESGVPDRFSGSGSGTDFTLTISSLQAEDVAVYYCQHSRELPYTFGQGTKLEIK
B6: MYT12468 (hu7E6SVG variant, LCV substitutions at 60, 94, 101 (Ala at 94)) (antibody, V domains shown)
VH: B5 VH with H33G, H51I, H106M
VL: B5 VL with S60H, H94A, T101H
notes: Full IgG in Expi293 supernatant
B7: MYT12434 (hu7E6SVG variant, HCV substitutions at 33, 103, 106) (antibody, V domains shown)
VH: B5 VH with H51I, R103H
VL: B5 VL
B8: MYT12433 (hu7E6SVG variant, HCV substitutions at 33, 56, 106) (antibody, V domains shown)
VH: B5 VH with H51I, V56H
VL: B5 VL
B9: MYT12473 (hu7E6SVG variant, LCV substitutions at 94, 97, 101 (Ala at 94)) (antibody, V domains shown)
VH: B5 VH with H33G, H51I, H106M
VL: B5 VL with H94A, E97H, T101H
notes: as for B6
B10: 166-DXd (antibody, IgG1, V domains shown)
VH: QVQLQQSGSELKKPGASVKVSCKASGYTFTNYGMNWVKQAPGQGLKWMGWINTYTGEPTYTHDFKGRFAFSLDTSVSTAYLQISSLKADDTAVYFCARGGFGSSYWYFDVWGQGSLVTVSS
VL: B1 VL with M4L, T20S, S30H, T31I, S60D, H89Q, I93H, Q100A, L104V
modifications: maleimide based GGFG-DXd conjugated to hinge cysteines, average DAR of about 4
B11: 165-DXd (antibody, IgG1, V domains shown)
VH: B10 VH with H62D
VL: B1 VL with M4L, T20S, T31I, H51A, S60D, H89Q, Q100A, L104V
modifications: maleimide based GGFG-DXd conjugated to hinge cysteines, average DAR of about 4
B12: 167-DXd (antibody, IgG1, V domains shown)
VH: B10 VH with H62D, D63H
VL: B1 VL with M4L, T20S, S30H, T31I, V33H, H51A, S60D, H89Q, Q100A, L104V
modifications: maleimide based GGFG-DXd conjugated to hinge cysteines, average DAR of about 4
B13: 168-DXd (antibody, IgG1, V domains shown)
VH: B10 VH with H62D, F64H
VL: B1 VL with M4L, T20S, S30H, T31I, S60D, H89Q, I93H, Q100A, L104V
modifications: maleimide based GGFG-DXd conjugated to hinge cysteines, average DAR of about 4
B14: MYT13447 (antibody, V domains shown)
VH: B5 VH with H33G, H51I
VL: B5 VL with E59H, T101H
notes: Full-length IgG from Expi293 supernatant; also called hu7E6SVG heavy chain and light chain pairing variant
B15: MYT13307 (antibody, V domains shown)
VH: B5 VH with H33G, H51I, V56H, H106M
VL: B5 VL with E59H, H94A
notes: as for B14
B16: MYT13312 (antibody, V domains shown)
VH: B5 VH with H33G, H51I, V56H, H106M
VL: B5 VL with E59H, T101H
notes: as for B14
B17: MYT13306 (antibody, V domains shown)
VH: B5 VH with H33G, H106M
VL: B5 VL with E59H, H94A
notes: as for B14
B18: MYT13443 (antibody, V domains shown)
VH: B5 VH with H33G, H106M
VL: B5 VL with E59H, T101H
notes: as for B14
B19: MYT13311 (antibody, V domains shown)
VH: B5 VH with H33G, H106M
VL: B5 VL with E59H, T101H
notes: as for B14
B20: MYT13267 (antibody, V domains shown)
VH: B1 VH with S104H
VL: B1 VL with H51A, Y53H, H89Q
notes: Full-length IgG from Expi293 supernatant; also called datopotamab heavy chain and light chain pairing variant
B21: MYT13266 (antibody, V domains shown)
VH: B1 VH with F101H
VL: B1 VL with H51A, Y53H, H89Q
notes: as for B20
B22: MYT13274 (antibody, V domains shown)
VH: B1 VH with F101H
VL: B1 VL with H51A, H89Q, I93H
notes: as for B20
B23: MYT13275 (antibody, V domains shown)
VH: B1 VH with S104H
VL: B1 VL with H51A, H89Q, I93H
notes: as for B20
B24: MYT13273 (antibody, V domains shown)
VH: B1 VH with R98H
VL: B1 VL with H51A, H89Q, I93H
notes: as for B20

The first experiment concerns the target T1, Human TROP2 Protein, His Tag (Acro Biosystems) (human, UniProt P09758 27-274).
T1 construct: not shown: His tag
T1 sequence (looked up): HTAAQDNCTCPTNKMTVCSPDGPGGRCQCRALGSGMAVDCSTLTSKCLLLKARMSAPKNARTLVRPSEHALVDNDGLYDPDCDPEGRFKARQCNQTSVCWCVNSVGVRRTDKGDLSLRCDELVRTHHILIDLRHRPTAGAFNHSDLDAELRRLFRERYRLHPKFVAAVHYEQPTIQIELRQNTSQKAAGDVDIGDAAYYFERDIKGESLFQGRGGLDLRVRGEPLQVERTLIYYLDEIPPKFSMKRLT
The experiment in a line: BLI (Octet). A general note: Biolayer interferometry detects binding as a change in optical thickness at a sensor tip.
As to B1, the binding result is given as “binds”.

Turning to B2, the binding result is recorded as “binds”.

On to B3, for which the binding result is recorded as “binds”.

With B4, the binding result was “binds”.

The target of a further experiment is T2, Human TROP2 Protein, His Tag (Acro Biosystems) (human, UniProt P09758 27-274).
T2 construct: Bought protein; also called TACSTD2; not shown: His tag
T2 sequence: T1 sequence (looked up)
As to the kind of experiment: BLI (Octet).
Turning to B5, the binding result is “no binding (tested: 50 nM)”.

B6: the binding result was “no binding (tested: 50 nM)”.

With B7, the binding result is recorded as “no binding (tested: 50 nM)”.

In the case of B8, the binding result was “no binding (tested: 50 nM)”.

As to B9, the binding result is recorded as “no binding (tested: 50 nM)”.

The target of another experiment is T3, TROP2 on TROP2-positive NCI-H1975 cells (human, UniProt P09758 27-323).
T3 sequence: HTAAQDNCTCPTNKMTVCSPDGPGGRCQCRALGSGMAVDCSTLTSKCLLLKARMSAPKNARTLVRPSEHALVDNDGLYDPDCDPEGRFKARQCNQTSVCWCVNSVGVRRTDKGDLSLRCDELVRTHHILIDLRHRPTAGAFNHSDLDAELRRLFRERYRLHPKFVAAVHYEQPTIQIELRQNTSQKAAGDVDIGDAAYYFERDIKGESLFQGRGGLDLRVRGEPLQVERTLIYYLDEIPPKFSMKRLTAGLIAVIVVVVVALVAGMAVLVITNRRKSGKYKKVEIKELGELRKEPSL
As to the kind of experiment: cell-based or functional assay.
B10: the “% efficiency @ 100 nM ADC (cytotoxicity in NCI-H1975 cells)” value (“% efficiency @ 100 nM ADC” for short) is 9.57%.

For the molecule B11, the “% efficiency @ 100 nM ADC” value was 1.47%.

In the case of B12, the “% efficiency @ 100 nM ADC” value worked out at 4.86%.

With B13, the “% efficiency @ 100 nM ADC” value turned out to be 7.32%.

The target in another experiment is T4, Human TROP2 Protein, His Tag (Acro Biosystems) (human, UniProt P09758 27-274).
T4 construct: not shown: His tag
T4 sequence (looked up): T1 sequence (looked up)
As to the kind of experiment: BLI (Octet) [2/2].
Turning to B14, the binding result is listed as “no binding (tested: 50 nM)”.

For the next experiment, the target named is T4, Human TROP2 Protein, His Tag (Acro …). The experiment in a line: Octet BLI: IgG supernatant on anti-human Fc sensor, 50 nM TROP2-His at pH 7.4; Octet Binding Result 3=No binding. Here is the method:
(§1) After allowing for four days of protein expression, cell culture supernatants were collected, quantified by SDS-PAGE analysis (DNS), and the pH dependence of the variant was evaluated using biolayer interferometry (BLI) on an Octet RED 96e instrument. Briefly, cell culture supernatants were diluted based on qualitative expression level of the variant determined by visual examination of SDS-PAGE gels, 5 μL of cell culture supernatant was diluted into 195 μL of 1×PBST, pH 7.4 for high expressors, 25 μL of cell culture supernatant was diluted into 175 μL of 1×PBST, pH 7.4 for medium expressors and 100 μL of cell culture supernatant was diluted into 100 μL of 1×PBST, pH 7.4 for low expressors for loading onto the sensor tips. The resulting diluted supernatants were then captured on an anti-human Fc sensor (Forte Bio). A baseline was established using 1×PBST (50 mM Potassium Phosphate Buffer+150 mM NaCl+0.05% Tween 20) pH 7.4, and the sensor was associated with 50 nM of TROP2 (Human TROP2 Protein, His Tag, Acro Biosystems) in 1×PBST pH 7.4 for 120 sec to generate an association curve. In the dissociation phase, the antibody-antigen complex on the sensor was exposed to 1×PBST pH 7.4 or pH 5.4, for 300 sec. Association and dissociation phase curves were examined for the starting ABPC antibody (with no substitutions) and each corresponding antibody variant at pH 5.4 and pH 7.4 to inform on two criteria: a) enhanced dissociation (i.e., higher koff values) at pH 5.4 due to histidine or alanine substitution compared to the starting ABPC, (with no substitutions), and b) reduced dissociation at pH 7.4 (i.e., lower koff values) compared to pH 5.4 in the antibody variant itself and with the starting ABPC (with no substitutions). […] It was also noted that while some mutations obliterated TROP2 binding, others were tolerated with little or n change in TROP2 binding kinetics.
Turning to B15, the binding result is “no binding (tested: 50 nM)”.

Turning to B16, the binding result is recorded as “no binding (tested: 50 nM)”.

Consider B17, for which the binding result is given as “no binding (tested: 50 nM)”.

As for B18, the binding result is recorded as “no binding (tested: 50 nM)”.

Regarding B19, the binding result is “no binding (tested: 50 nM)”.

For a further experiment the target is unchanged. The experiment in a line: Octet BLI: IgG supernatant on anti-human Fc sensor, 50 nM TROP2-His at pH 7.4, dissociation at pH 7.4 or 5.4; Octet Binding Result 1=pH dependent. The protocol: as §1
For B20, the binding result is “binds”.

B21: the binding result was “binds”.

Take B22: the binding result is given as “binds”.

Regarding B23, the binding result is “binds”.

Regarding B24, the binding result is recorded as “binds”.
